From the RNAGym collection of RNA variant scans (doi:10.7554/elife.80360)

B1: HDV Ribozyme (parent)
chain: GGCCGGCAUGGUCCCAGCCUCCUCGCUGGCGCCGGCUGGGCAACAUUCCGAGGGGACCGUCCCCUCGGUAAUGGCGAAUGGGACCCA

Variants of: B1
Assay: self-cleavage, relative activity (ratio to wild type); higher = more cleavage; co-transcriptional
For C62G G76A, the self-cleavage was 1.02.
Variant G40A G73U has a self-cleavage of 0.554.
With C24A G35A the self-cleavage was 0.212.
Work on C24A G25U yielded a self-cleavage of 0.277.
G17U G55C showed a self-cleavage of 0.453.
A16G C41U gave a self-cleavage of 1.22.
In the case of A8U U69C, the self-cleavage is reported as 0.646.
For C24A C57U, the self-cleavage was 0.727.
Variant C4U C21G has a self-cleavage of 0.
G35U C86U showed a self-cleavage of 0.464.
With C21G A70U the self-cleavage was 0.111.
For A70G C84G, the self-cleavage was 0.475.
G50A G55C showed a self-cleavage of 0.81.
U47C A83C gave a self-cleavage of 0.554.
U23C A87G gave a self-cleavage of 0.855.
C62A G81C showed a self-cleavage of 0.138.
For U12C C33A, the self-cleavage was 0.0386.
U27C C62A gave a self-cleavage of 0.54.
For G55A C66G, the self-cleavage was 0.843.
In the case of C24G G76A, the self-cleavage is reported as 0.101.
U12A C86U showed a self-cleavage of 0.178.
G53C A71U showed a self-cleavage of 1.1.
In the case of A8U C33U, the self-cleavage is reported as 0.453.
For A77C G81C, the self-cleavage was 0.0504.
In the case of U79G A83C, the self-cleavage is reported as 0.204.
Work on C24G U79G yielded a self-cleavage of 0.
Work on C18U C49A yielded a self-cleavage of 0.623.
Work on C7A G74U yielded a self-cleavage of 0.201.
Work on C57A G76A yielded a self-cleavage of 1.18.
Variant G39A G76A has a self-cleavage of 0.421.
U12C G53C showed a self-cleavage of 0.332.
C13U U65G showed a self-cleavage of 0.895.
In the case of C41G G82C, the self-cleavage is reported as 0.158.
G67A G82C showed a self-cleavage of 0.224.
With G1A G5U the self-cleavage was 0.101.
In the case of C44G A71G, the self-cleavage is reported as 0.646.
Variant U47G A51G has a self-cleavage of 0.906.
With C13G C18U the self-cleavage was 0.0875.
Variant C49G G68A has a self-cleavage of 0.789.
For U12A C44U, the self-cleavage was 0.
G17C G29U showed a self-cleavage of 0.
For C4U A78C, the self-cleavage was 0.0378.
With G38A A83G the self-cleavage was 0.142.
Work on C22A A71G yielded a self-cleavage of 0.393.
G39U C84A gave a self-cleavage of 0.495.
For C14U G31A, the self-cleavage was 0.475.
C30U C85G gave a self-cleavage of 0.0978.
For C62G G67A, the self-cleavage was 0.095.
In the case of C44U C61U, the self-cleavage is reported as 0.716.
C66A A87C showed a self-cleavage of 1.
In the case of C57U U60A, the self-cleavage is reported as 1.07.
G52C G81A gave a self-cleavage of 0.563.
With A42C U79C the self-cleavage was 0.124.
Variant U69A G81U has a self-cleavage of 0.332.
In the case of U37A C41G, the self-cleavage is reported as 0.0723.
Work on G28U C66U yielded a self-cleavage of 0.19.
U72G G80C gave a self-cleavage of 0.26.
In the case of G17A U69A, the self-cleavage is reported as 0.731.
Work on A51G G82U yielded a self-cleavage of 0.203.
For C36U G55U, the self-cleavage was 0.8.
G6C C22A showed a self-cleavage of 0.
For U27A G76A, the self-cleavage was 0.997.
A16C A70C showed a self-cleavage of 0.731.
For G11U A51U, the self-cleavage was 0.506.
Work on G55U U60C yielded a self-cleavage of 1.11.
G34C A70C showed a self-cleavage of 0.123.
Work on C3G C86U yielded a self-cleavage of 0.885.
In the case of G11C G17U, the self-cleavage is reported as 0.332.
In the case of G39U A42U, the self-cleavage is reported as 0.378.
Work on C14A U69C yielded a self-cleavage of 0.95.
C58G G67C gave a self-cleavage of 0.739.
With U12C C22G the self-cleavage was 0.
C33A C66U gave a self-cleavage of 0.241.
Work on C7A C41U yielded a self-cleavage of 0.489.
Work on C49G G81A yielded a self-cleavage of 0.361.
Work on C18G G38C yielded a self-cleavage of 0.
In the case of C36G G52A, the self-cleavage is reported as 0.271.
C30G U79C gave a self-cleavage of 0.0496.
Work on C7G U79A yielded a self-cleavage of 0.123.
With A8G C84A the self-cleavage was 0.598.
Work on G1U G5U yielded a self-cleavage of 0.402.
With G38C C61A the self-cleavage was 0.218.
C41U A70C showed a self-cleavage of 0.803.
G34A C36G gave a self-cleavage of 0.122.
Work on C26A G40U yielded a self-cleavage of 0.946.
Variant U72A C75G has a self-cleavage of 0.119.
Variant C14A G59A has a self-cleavage of 0.762.
For C4U U27G, the self-cleavage was 0.453.
Variant U23C G68C has a self-cleavage of 0.727.
G6C G11A gave a self-cleavage of 0.
In the case of C13G G25A, the self-cleavage is reported as 0.
Variant C24A G29C has a self-cleavage of 0.136.
Work on U9G A56C yielded a self-cleavage of 0.462.
C61A G76U showed a self-cleavage of 1.05.
In the case of C18U U27C, the self-cleavage is reported as 0.268.
Variant U65G A78G has a self-cleavage of 0.957.
With G1U G10U the self-cleavage was 0.336.
With G17U U60C the self-cleavage was 0.601.
Variant C32G C48G has a self-cleavage of 0.0437.
For G35U U72A, the self-cleavage was 0.172.
C18G G39A gave a self-cleavage of 0.
With C18A C36G the self-cleavage was 0.
With C57G A77C the self-cleavage was 0.237.
With A16U C18A the self-cleavage was 0.107.
G34C G39C showed a self-cleavage of 0.0554.
C66U U69G showed a self-cleavage of 0.867.
A45G A51G gave a self-cleavage of 0.612.
C44U G82A gave a self-cleavage of 0.363.
With G52A C57G the self-cleavage was 1.01.
With A51G U65A the self-cleavage was 0.7.
In the case of C49G C66U, the self-cleavage is reported as 0.646.
For G5U G55C, the self-cleavage was 0.465.
For C30A C62A, the self-cleavage was 0.578.
C15G C21A gave a self-cleavage of 0.0707.
With G74U A87U the self-cleavage was 0.506.
Work on C41A G82U yielded a self-cleavage of 0.348.
G2A G28C gave a self-cleavage of 0.0415.
In the case of U9G G74A, the self-cleavage is reported as 0.751.
U9C U37G gave a self-cleavage of 0.
With C15U A83U the self-cleavage was 0.26.
In the case of C33U G73U, the self-cleavage is reported as 0.391.
Variant C7G G80A has a self-cleavage of 0.145.
U12G U20A showed a self-cleavage of 0.0573.
In the case of G28U U72C, the self-cleavage is reported as 0.0898.
C33A C84G gave a self-cleavage of 0.219.
C19G U20C showed a self-cleavage of 0.0692.
G2A U72G showed a self-cleavage of 0.0906.
With G55A G76C the self-cleavage was 1.09.
C41G G50C showed a self-cleavage of 0.554.
Work on C22U C64A yielded a self-cleavage of 0.786.
For G50A G73C, the self-cleavage was 0.436.
C21G A43U gave a self-cleavage of 0.
C3U A70U gave a self-cleavage of 0.678.
For G6A C85A, the self-cleavage was 0.895.
Variant C18G C32G has a self-cleavage of 0.107.
In the case of G35A G50U, the self-cleavage is reported as 0.629.
Work on G40U G74C yielded a self-cleavage of 0.111.
In the case of G2A G67U, the self-cleavage is reported as 0.157.
In the case of A16C C63G, the self-cleavage is reported as 0.633.
Work on C15G C84A yielded a self-cleavage of 0.519.
G6C C36A showed a self-cleavage of 0.095.
With U20G C44U the self-cleavage was 0.192.
C36U U69C showed a self-cleavage of 0.801.
Work on G29A C86A yielded a self-cleavage of 0.155.
G68U G80U showed a self-cleavage of 0.257.
A51C A83C showed a self-cleavage of 0.571.
For C13G U23A, the self-cleavage was 0.151.
With G54C A83C the self-cleavage was 0.332.
A43C A71U showed a self-cleavage of 0.322.
C15G G82U showed a self-cleavage of 0.229.
U9C G25U gave a self-cleavage of 0.104.
G31A G68C showed a self-cleavage of 0.518.
For G17U C41A, the self-cleavage was 0.104.
G50A A87C gave a self-cleavage of 1.07.
With G34U C49A the self-cleavage was 0.151.
Work on G6C C18A yielded a self-cleavage of 0.0791.
U27G G82C showed a self-cleavage of 0.237.
For G55C C63G, the self-cleavage was 0.888.
Work on G50A G59C yielded a self-cleavage of 1.31.
Work on G54C U69G yielded a self-cleavage of 1.07.
G52U C63G showed a self-cleavage of 0.277.
Variant C30U C41A has a self-cleavage of 0.543.
With G50C C66U the self-cleavage was 0.954.
Variant C66G C84G has a self-cleavage of 0.745.
In the case of G28C G38U, the self-cleavage is reported as 0.162.
For C13U U69C, the self-cleavage was 0.88.
C32G G73U gave a self-cleavage of 0.0692.
